Patent US20240279288A1, “APPLICATION OF PLANT JAZ PROTEINS AND DERIVED POLYPEPTIDES IN PREVENTION AND TREATMENT OF HUMAN AND ANIMAL TUMORS” (ANYANG INSTITUTE OF SINO-COTTON INDUSTRY INNOVATION, priority 2021, published 2024)

How the values were obtained:
[1] = system: GhTPL; experiment: Yeast two hybrid with GhTPL; format: binding, cotton
Experimental: The study on Arabidopsis had shown that the inhibition of JAZ protein on JA signaling was mainly achieved by inhibiting the transcription factor function of MYC, which had been experimentally verified by us in cotton. Based on the phylogenetic tree of Arabidopsis and cotton JAZs, we screened 6 cotton JAZs (GhJAZ1, GhJAZ7, GhJAZ9, GhJAZ10, GhJAZ11 and GhJAZ31), which were analyzed with GhMYC2, GhNINJA, GhTPL, GhHDA6, and GhCOI1 for yeast two hybrid. The amino acid sequence of GhJAZ1 was set forth in SEQ ID No. 4, and the corresponding encoding gene sequence was set forth in SEQ ID No. 39; the amino acid sequence of GhJAZ7 was set forth in SEQ ID No. 7, and the corresponding encoding gene sequence was set forth in SEQ ID No. 42; the amino acid sequence of GhJAZ9 was set forth in SEQ ID No. 2, and the corresponding encoding gene sequence was set forth in SEQ ID No. 37; the amino acid sequence of GhJAZ10 was set forth in SEQ ID No. 3, and the corresponding encoding gene sequence was set forth in SEQ ID No. 38; the amino acid sequence of GhJAZ11 was set forth in SEQ ID No. 5, and the corresponding encoding gene sequence was set forth in SEQ ID No. 40; and the amino acid sequence of GhJAZ31 was set forth in SEQ ID No. 9, and the corresponding encoding gene sequence was set forth in SEQ ID No. 44. The amino acid sequence of GhMYC2 was set forth in SEQ ID No. 71, and the corresponding encoding gene sequence was set forth in SEQ ID No. 72; the amino acid sequence of GhNINJA was set forth in SEQ ID No. 73, and the corresponding encoding gene sequence was set forth in SEQ ID No. 74; the amino acid sequence of GhTPL was set forth in SEQ ID No. 75, and the corresponding encoding gene sequence was set forth in SEQ ID No. 76; the amino acid sequence of GhHDA6 was set forth in SEQ ID No. 77, and the corresponding encoding gene sequence was set forth in SEQ ID No. 78; and the amino acid sequence of GhCOI1 was set forth in SEQ ID No. 79, and the corresponding encoding gene sequence was set forth in SEQ ID No. 80. […]

[2] = target: c-Myc (Homo sapiens, UniProt P01106); experiment: Yeast two hybrid with c-Myc; format: binding; set-up: with the full length of c-Myc and NMYC, respectively; expressed in transfected cells; host or cells: yeast Y2HGold
Description: […]

Sequence of GhTPL (as listed by the source): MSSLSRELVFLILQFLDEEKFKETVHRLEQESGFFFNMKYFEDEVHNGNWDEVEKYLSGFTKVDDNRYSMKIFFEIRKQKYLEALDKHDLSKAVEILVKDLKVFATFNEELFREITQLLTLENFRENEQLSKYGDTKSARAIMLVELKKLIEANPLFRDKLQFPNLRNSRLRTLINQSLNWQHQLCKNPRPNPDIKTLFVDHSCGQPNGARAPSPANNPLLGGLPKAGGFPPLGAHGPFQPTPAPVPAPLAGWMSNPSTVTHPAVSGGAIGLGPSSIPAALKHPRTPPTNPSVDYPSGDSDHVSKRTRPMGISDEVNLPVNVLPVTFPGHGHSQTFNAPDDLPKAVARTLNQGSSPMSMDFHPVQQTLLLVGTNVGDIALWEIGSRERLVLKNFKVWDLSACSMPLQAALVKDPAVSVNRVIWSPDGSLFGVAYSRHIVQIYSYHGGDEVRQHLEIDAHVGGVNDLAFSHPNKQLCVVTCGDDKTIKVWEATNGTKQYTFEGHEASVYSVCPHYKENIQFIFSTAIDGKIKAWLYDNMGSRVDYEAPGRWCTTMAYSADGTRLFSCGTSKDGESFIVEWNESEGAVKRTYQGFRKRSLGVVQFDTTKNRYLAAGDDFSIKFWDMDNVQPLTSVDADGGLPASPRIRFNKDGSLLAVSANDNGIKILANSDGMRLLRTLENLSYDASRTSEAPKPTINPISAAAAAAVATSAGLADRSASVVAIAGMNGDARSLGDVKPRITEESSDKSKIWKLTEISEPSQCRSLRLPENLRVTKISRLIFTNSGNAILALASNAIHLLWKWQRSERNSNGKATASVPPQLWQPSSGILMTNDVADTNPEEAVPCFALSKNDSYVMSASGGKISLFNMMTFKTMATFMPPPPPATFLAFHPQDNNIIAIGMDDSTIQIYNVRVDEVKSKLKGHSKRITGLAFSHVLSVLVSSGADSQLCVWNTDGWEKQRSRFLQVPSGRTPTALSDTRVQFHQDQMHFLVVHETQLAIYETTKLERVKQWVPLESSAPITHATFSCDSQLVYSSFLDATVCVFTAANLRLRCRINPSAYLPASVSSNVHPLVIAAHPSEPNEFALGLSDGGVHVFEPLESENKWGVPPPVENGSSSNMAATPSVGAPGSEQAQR
Sequence of c-Myc (P01106 whole entry): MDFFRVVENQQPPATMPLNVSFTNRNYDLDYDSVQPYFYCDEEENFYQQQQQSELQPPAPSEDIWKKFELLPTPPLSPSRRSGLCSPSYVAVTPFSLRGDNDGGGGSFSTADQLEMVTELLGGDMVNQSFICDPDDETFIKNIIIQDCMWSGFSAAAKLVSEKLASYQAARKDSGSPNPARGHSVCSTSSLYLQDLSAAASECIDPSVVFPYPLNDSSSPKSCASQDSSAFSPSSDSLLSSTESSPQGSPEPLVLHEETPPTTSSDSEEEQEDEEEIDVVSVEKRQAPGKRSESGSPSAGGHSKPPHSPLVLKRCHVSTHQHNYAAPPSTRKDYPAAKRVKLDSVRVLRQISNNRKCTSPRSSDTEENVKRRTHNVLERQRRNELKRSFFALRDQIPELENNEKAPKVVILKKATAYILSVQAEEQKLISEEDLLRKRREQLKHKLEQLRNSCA

Row | Molecule | interaction with GhTPL [1] | interaction with c-Myc [2]
1 | GhJAZ1 after deletion of NT domain: GhJAZ1 mutant with NT domain deleted, protein sequence SEQ ID No. 83 (protein) MSSCSESTAMKPARSPEANGTPVVPPPTMNLFPLNDKSDDVCGRNGGNPKNLTSMDLFPQQAGLASKDDSPNKLEPQTAPMTIFYGGQVIVFNDFPANKAKEIMLLASNSSSQSNNSFNPIPFTSSIARSPIESSIGVPPTSKPVHPAQRAVPGDLPIARRASLHRFLEKRKDRITAKAPYQINNSAAAPSLSGDNKSWLGLAAQSP | significantly weakened | significantly weakened
2 | GhJAZ1: cotton JAZ1 protein, gene number Gh_A05G0260, sequence SEQ ID No. 4; prokaryotically expressed with His tag, about 30 KD (protein, His tag, prokaryotically expressed with His tag, about 30 KD) MSSCSESTAMKPARSPEKPSFAQTCNLLSQYLKEKGSFGDLSLGMTCNVEANGTPVVPPPTMNLFPLNDKSDDVCGRNGGNPKNLTSMDLFPQQAGLASKDDSPNKLEPQTAPMTIFYGGQVIVFNDFPANKAKEIMLLASNSSSQSNNSFNPIPFTSSIARSPIESSIGVPPTSKPVHPAQRAVPGDLPIARRASLHRFLEKRKDRITAKAPYQINNSAAAPSLSGDNKSWLGLAAQSP | interacted | interacted
